{"source": "paper PMC3237733", "binders": {"B1": {"name": "GST-VE-cadherin_(415–534) (domain or fragment)", "chain": "KGQFFRVTKKGDIYNEKELDREVYPWYNLTVEAKELDSTGTPTGKESIVQVHIEVLDENDNAPEFAKPYQPKVCENAVHGQLVLQISAIDKDITPRNVKFKFILNTENNFTLTDNHDNTA"}}, "biological_target": "dansylated-FadAc (Fusobacterium nucleatum 12230) (UniProt Q5I6B0)", "experiment": "other fluorescence titration", "data": [{"binder": "B1", "values": [{"measurement": "Kd", "value": 15.9, "unit": "µM"}]}]}
